Data from IntAct's records for PubMed 28698298.

B1: GRB10-interacting GYF protein 1 (Homo sapiens), O75420 (parent)
chain: MAAETLNFGPEWLRALSGGGSVASPPPSPAMPKYKLADYRYGREEMLALYVKENKVPEELQDKEFAAVLQDEPLQPLALEPLTEEEQRNFSLSVNSVAVLRLMGKGAGPPLAGTSRGRGSTRSRGRGRGDSCFYQRSIEEGDGAFGRSPREIQRSQSWDDRGERRFEKSARRDGARCGFEEGGAGPRKEHARSDSENWRSLREEQEEEEEGSWRLGAGPRRDGDRWRSASPDGGPRSAGWREHGERRRKFEFDLRGDRGGCGEEEGRGGGGSSHLRRCRAPEGFEEDKDGLPEWCLDDEDEEMGTFDASGAFLPLKKGPKEPIPEEQELDFQGLEEEEEPSEGLEEEGPEAGGKELTPLPPQEEKSSSPSPLPTLGPLWGTNGDGDETAEKEPPAAEDDIRGIQLSPGVGSSAGPPGDLEDDEGLKHLQQEAEKLVASLQDSSLEEEQFTAAMQTQGLRHSAAATALPLSHGAARKWFYKDPQGEIQGPFTTQEMAEWFQAGYFSMSLLVKRGCDEGFQPLGEVIKMWGRVPFAPGPSPPPLLGNMDQERLKKQQELAAAALYQQLQHQQFLQLVSSRQLPQCALREKAALGDLTPPPPPPPQQQQQQLTAFLQQLQALKPPRGGDQNLLPTMSRSLSVPDSGRLWDVHTSASSQSGGEASLWDIPINSSTQGPILEQLQLQHKFQERREVELRAKREEEERKRREEKRRQQQQEEQKRRQEEEELFRRKHVRQQELLLKLLQQQQAVPVPPAPSSPPPLWAGLAKQGLSMKTLLELQLEGERQLHKQPPPREPARAQAPNHRVQLGGLGTAPLNQWVSEAGPLWGGPDKSGGGSSGLGLWEDTPKSGGSLVRGLGLKNSRSSPSLSDSYSHLSGRPIRKKTEEEEKLLKLLQGIPRPQDGFTQWCEQMLHTLSATGSLDVPMAVAILKEVESPYDVHDYIRSCLGDTLEAKEFAKQFLERRAKQKASQQRQQQQEAWLSSASLQTAFQANHSTKLGPGEGSKAKRRALMLHSDPSILGYSLHGSSGEIESVDDY
B2: Eukaryotic translation initiation factor 4E type 2 (Homo sapiens), O60573-1 (parent)
chain: MNNKFDALKDDDSGDHDQNEENSTQKDGEKEKTERDKNQSSSKRKAVVPGPAEHPLQYNYTFWYSRRTPGRPTSSQSYEQNIKQIGTFASVEQFWRFYSHMVRPGDLTGHSDFHLFKEGIKPMWEDDANKNGGKWIIRLRKGLASRCWENLILAMLGEQFMVGEEICGAVVSVRFQEDIISIWNKTASDQATTARIRDTLRRVLNLPPNTIMEYKTHTDSIKMPGRLGPQRLLFQNLWKPRLNVP
partner: B1 chain

Variants of: B1
Details: with EIF4E2, O60573-1

Row | effect of a mutation on the interaction | Variant
1 | disrupting interaction strength | L60D;F65D;V68D;P76D;L77A
2 | with no effect | E86A;N95F
3 | disrupting interaction strength | L60D;F65D;V68D;E86A;N95F
4 | with no effect | L60D;F65A;V68D

Variants of: B1
Details: with EIF4E2, O60573-1
Remark: another data set of the same source

Row | effect of a mutation on the interaction | Variant
5 | with no effect | E44A;E45F;Q87A

Variants of: B1
Details: with EIF4E2, O60573-1
Remark: another data set of the same source

Row | effect of a mutation on the interaction | Variant
6 | disrupting interaction strength | Y39A;Y41A;M46A;L47A

Variants of: B1
Details: with EIF4E2, O60573-1
Remark: another data set of the same source

Row | effect of a mutation on the interaction | Variant
7 | with no effect | E44F;E45A;Q87A

Variants of: B2
Details: with ggyf1_human GIGYF1, O75420

Row | effect of a mutation on the interaction | Variant
8 | with no effect | MNNKFDALKDDDSGDHDQNEENSTQKDGEKEKTERDKNQSSSKRKAVVPGPAEHPLQYNYTFWYSRRTPGRPTSSQSYEQNIKQIGTFASVEQFWRFYSHMVRPGDLTGHSDFHLFKEGIKPMWEDDANKNGGKWIIRLRKGLASRCWENLILAMLGESFDVGEEICGAVVSVRFQEDIISIWNKTASDQATTARIRDTLREVLNLPPNTIMEYKTHTDSIKMPGRLGPQRLLFQNLWKPRLNVP [Q159S;M161D;R202E]

Variants of: B2
Details: with ggyf1_human GIGYF1, O75420
Remark: another data set of the same source

Row | effect of a mutation on the interaction | Variant
9 | disrupting interaction strength | MNNKFDALKDDDSGDHDQNEENSTQKDGEKEKTERDKNQSSSKRKAVVPGPAEHPLQYNYTFWYSRRTPGRPTSSQSYEQNIKQAGTFASVEQFARFYSHAVRPGDLTGHSDFHLFKEGIKPMWEDDANKNGGKWIIRLRKGLASRCWENLILAMLGEQFMVGEEICGAVVSVRFQEDIISIWNKTASDQATTARIRDTLRRVLNLPPNTIMEYKTHTDSIKMPGRLGPQRLLFQNLWKPRLNVP [I85A;W95A;M101A]
10 | disrupting interaction strength | MNNKFDALKDDDSGDHDQNEENSTQKDGEKEKTERDKNQSSSKRKAVVPGPAEHPLQYNYTFWYSRRTPGRPTSSQSYEQNIKQIGTFASVEQFARFYSHMVRPGDLTGHSDFHLFKEGIKPMWEDDANKNGGKWIIRLRKGLASRCWENLILAMLGEQFMVGEEICGAVVSVRFQEDIISIWNKTASDQATTARIRDTLRRVLNLPPNTIMEYKTHTDSIKMPGRLGPQRLLFQNLWKPRLNVP [W95A]
11 | decreasing interaction strength | MNNKFDALKDDDSGDHDQNEENSTQKDGEKEKTERDKNQSSSKRKAVVPGPAEHPLQYNYTFWYSRRTPGRPTSSQSYEQNIKQAGTFASVEQFWRFYSHAVRPGDLTGHSDFHLFKEGIKPMWEDDANKNGGKWIIRLRKGLASRCWENLILAMLGEQFMVGEEICGAVVSVRFQEDIISIWNKTASDQATTARIRDTLRRVLNLPPNTIMEYKTHTDSIKMPGRLGPQRLLFQNLWKPRLNVP [I85A;M101A]

Variants of: B2
Details: with ggyf1_human GIGYF1, O75420
Remark: another data set of the same source

Row | effect of a mutation on the interaction | Variant
12 | with no effect | MNNKFDALKDDDSGDHDQNEENSTQKDGEKEKTERDKNQSSSKRKAVVPGPAEHPLQYNYTFWYSRRTPGRPTSSQSYEQNIKQIGTFASVEQFARFYSHMVRPGDLTGHSDFHLFKEGIKPMWEDDANKNGGKWIIRLRKGLASRCWENLILAMLGEQFMVGEEICGAVVSVRFQEDIISIWNKTASDQATTARIRDTLRRVLNLPPNTIMEYKTHTDSIKMPGRLGPQRLLFQNLWKPRLNVP [W95A]
13 | with no effect | MNNKFDALKDDDSGDHDQNEENSTQKDGEKEKTERDKNQSSSKRKAVVPGPAEHPLQYNYTFWYSRRTPGRPTSSQSYEQNIKQAGTFASVEQFWRFYSHAVRPGDLTGHSDFHLFKEGIKPMWEDDANKNGGKWIIRLRKGLASRCWENLILAMLGEQFMVGEEICGAVVSVRFQEDIISIWNKTASDQATTARIRDTLRRVLNLPPNTIMEYKTHTDSIKMPGRLGPQRLLFQNLWKPRLNVP [I85A;M101A]
